Results: patent publication US20200010567A1 (NEURIMMUNE, published 2020)

T1: (GP)15: H-C(GP)15-OH
T1 construct: synthetic, not coupled to BSA; also called poly-GP DPR protein peptide
T1 peptide: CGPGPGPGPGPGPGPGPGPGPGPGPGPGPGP

T2: GP20: H-(GP)20HHHHHH-NH2 (C-terminal amide)
T2 peptide: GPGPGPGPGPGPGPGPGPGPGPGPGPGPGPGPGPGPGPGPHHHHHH

T3: GA5: H-(GA)5HHHHHH-NH2
T3 peptide: H-GAGAGAGAGAHHHHHH-NH2

T4: GA6: H-(GA)6HHHHHH-NH2
T4 peptide: H-GAGAGAGAGAGAHHHHHH-NH2


What was measured:
[1] = molecular target: T5, BSA-coupled (PA)15 DPR protein peptide (bovine, UniProt P02769 25-607, conjugated via a bifunctional linker (SMCC) to bovine serum albumin); test: Western blot of BSA-coupled peptides
T5 construct: also called BSA-(PA)15
T5 sequence (peptide, as listed by the source limits assumed, chain 1 of 2): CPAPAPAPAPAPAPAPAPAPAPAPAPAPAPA
T5 sequence (P02769 25-607 limits assumed, chain 2 of 2): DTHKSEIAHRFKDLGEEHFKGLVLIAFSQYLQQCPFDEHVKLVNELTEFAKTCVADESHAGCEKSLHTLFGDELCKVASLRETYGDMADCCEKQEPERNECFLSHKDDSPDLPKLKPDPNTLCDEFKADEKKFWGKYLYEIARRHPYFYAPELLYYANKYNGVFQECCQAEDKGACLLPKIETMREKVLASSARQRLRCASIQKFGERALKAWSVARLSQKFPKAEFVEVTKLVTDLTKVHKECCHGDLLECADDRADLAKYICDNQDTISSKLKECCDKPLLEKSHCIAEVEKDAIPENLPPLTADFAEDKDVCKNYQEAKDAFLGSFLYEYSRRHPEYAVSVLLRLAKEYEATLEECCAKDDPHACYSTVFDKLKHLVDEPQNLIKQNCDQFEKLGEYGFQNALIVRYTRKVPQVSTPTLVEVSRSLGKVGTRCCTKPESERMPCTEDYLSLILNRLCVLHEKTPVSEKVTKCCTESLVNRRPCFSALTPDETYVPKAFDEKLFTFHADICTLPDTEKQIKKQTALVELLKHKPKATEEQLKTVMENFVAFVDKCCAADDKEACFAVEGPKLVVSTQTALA
Experimental: (§1) Resolved proteins were then electroblotted (Novex® Semi-Dry Blotter, 1 h, 25V) on methanol-activated PVDF membranes (Immobilon®-P Transfer Membrane, Merck & Cie, Schaffhausen, Switzerland) by the use of Novex® NuPAGE® transfer buffer 2× (Life Technologies Europe B.V., Zug, Switzerland). Non-specific binding sites were blocked overnight at 4° C. (or alternatively for 1 h at room temperature) with PBS/0.1% Tween®-20 containing 2% BSA (Sigma-Aldrich, Buchs, Switzerland) (PBST). […] Membranes were washed three times in PBST for 15 min at RT and then incubated with a donkey anti-human IgG Fcγ-specific antibody conjugated with HRP (1:20000 or 1:10000 dilution, Jackson ImmunoResearch Laboratories, Inc., West Grove, USA) for 1 h at room temperature. Antibody binding was determined by membrane development using ECL and ImageQuant 350 detection (GE Healthcare, Otelfingen, Switzerland).
(§2) The binding specificity of the human-derived antibodies to BSA-coupled C9orf72 dipeptide repeat proteins (GA)₁₅, (GP)₁₅, (GR)₁₅, (PA)₁₅ and (PR)₁₅ was determined by Western blot analysis.

[2] = molecular target: T6, BSA-coupled (PR)15 DPR protein peptide (bovine, conjugated via a bifunctional linker (SMCC) to bovine serum albumin); test: Western blot of BSA-coupled peptides
T6 construct: also called BSA-(PR)15
T6 sequence (peptide, as listed by the source limits assumed, chain 1 of 2): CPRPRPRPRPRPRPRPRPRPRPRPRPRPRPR
T6 sequence (P02769 25-607 limits assumed, chain 2 of 2): as the sequence (P02769 25-607 limits assumed, chain 2 of 2) above
Experimental: as §1, §2

[3] = molecular target: T7, BSA-coupled (GR)15 DPR protein peptide (bovine, UniProt P02769 25-607, conjugated via a bifunctional linker (SMCC) to bovine serum albumin); test: Western blot of BSA-coupled peptides
T7 construct: also called BSA-(GR)15
T7 sequence (peptide, as listed by the source limits assumed, chain 1 of 2): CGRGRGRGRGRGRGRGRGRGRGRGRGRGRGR
T7 sequence (P02769 25-607 limits assumed, chain 2 of 2): as the sequence (P02769 25-607 limits assumed, chain 2 of 2) above
Experimental: as §1, §2

[4] = molecular target: T1, (GP)15: H-C(GP)15-OH; test: indirect ELISA, coated uncoupled peptide
Experimental: In brief, dipeptide repeat proteins were synthesized and purified by Schafer-N(Copenhagen, Denmark): (GA)₁₅: H-CHHHHHH(GA)₁₅-OH; (GP)₁₅: H-C(GP)₁₅-OH; (GR)₁₅: H-C(GR)₁₅-OH; (PA)₁₅: H-C(PA)₁₅-OH; (PR)₁₅: H—C(PR)₁₅-OH. 96-well microplates (Corning Incorporated, Corning, USA) were coated with dipeptide repeat protein peptides at a concentration of either 5 μg/ml or 20 μg/ml in coating buffer (15 mM Na₂CO₃, 35 mM NaHCO₃, pH 9.42). Non-specific binding sites were blocked for 1 h at room temperature with PBS/0.1% Tween®-20 containing 2% BSA (Sigma-Aldrich, Buchs, Switzerland). Primary antibodies were diluted to the indicated concentrations and incubated for 1 h at room temperature, followed by incubation with a donkey anti-human IgG Fcγ-specific antibody conjugated with HRP (Jackson ImmunoResearch Laboratories, Inc., West Grove, USA). Binding was determined by measurement of HRP activity in a standard colorimetric assay. EC₅₀ values were estimated by non-linear regression using GraphPad Prism software (San Diego, USA). The binding specificity and EC₅₀ of human-derived antibodies for C9orf72 dipeptide repeat protein peptides (GA)₁₅, (GP)₁₅, (GR)₁₅, (PA)₁₅ and (PR)₁₅ were determined by indirect ELISA.

[5] = molecular target: T2, GP20: H-(GP)20HHHHHH-NH2; test: indirect ELISA, coated His-tagged peptide
In short: (§3)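 Antibodies at graded concentrations bound for 1 h at room temperature to wells carrying 50 μg/ml His-tagged repeat peptide (pH 9.42 carbonate coating, 2% BSA block). Bound IgG read colorimetrically via HRP anti-human Fcγ; EC₅₀ estimated by non-linear regression.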

[6] = molecular target: T3, GA5: H-(GA)5HHHHHH-NH2; test: indirect ELISA, coated His-tagged peptide
In short: as §3

[7] = molecular target: T4, GA6: H-(GA)6HHHHHH-NH2; test: indirect ELISA, coated His-tagged peptide; indirect ELISA, peptide coated directly on the plate
Source text: In brief, dipeptide repeat proteins were synthesized and purified by Schafer-N (Copenhagen, Denmark): GA₂₀: H-(GA)₂₀HHHHHH-NH₂; GA₁₀: H-(GA)₁₀HHHHHH-NH₂; GA₆: H-(GA)₆HHHHHH-NH₂; GA₅: H-(GA)₅HHHHHH-NH₂; GA₄: H-(GA)₄HHHHHH-NH₂; GA₃: H-(GA)₃HHHHHH-NH₂; GA₂: H-(GA)₂HHHHHH-NH₂; GP₂₀: H-(GP)₂₀HHHHHH-NH₂; GP₁₀: H-(GP)₁₀HHHHHH-NH₂; GP₆: H-(GP)₆HHHHHH-NH₂; GP₅: H-(GP)₅HHHHHH-NH₂; GP₄: H-(GP)₄HHHHHH-NH₂; GP₃: H-(GP)₃HHHHHH-NH₂; GP₂: H-(GP)₂HHHHHH-NH₂. GR₂₀: H-(GR)₂₀HHHHHH-NH₂; GR₁₀: H-(GR)₁₀HHHHHH-NH₂; GR₆: H-(GR)₆HHHHHH-NH₂; GR₅: H-(GR)₅HHHHHH-NH₂; GR₄: H-(GR)₄HHHHHH-NH₂; GR₃: H-(GR)₃HHHHHH-NH₂; GR₂: H-(GR)₂HHHHHH-NH₂; PA₂₀: H-(PA)₂₀HHHHHH-NH₂; PA₁₀: H-(PA)₁₀HHHHHH-NH₂; PA₆: H-(PA)₆HHHHHH-NH₂; PA₅: H-(PA)₅HHHHHH-NH₂; PA₄: H-(PA)₄HHHHHH-NH₂; PA₃: H-(PA)₃HHHHHH-NH₂; PA₂: H-(PA)₂HHHHHH-NH₂; PR₂₀: H-(PR)₂₀HHHHHH-NH₂; PR₁₀: H-(PR)₁₀HHHHHH-NH₂; PR₆: H-(PR)₆HHHHHH-NH₂; PR₅: H-(PR)₅HHHHHH-NH₂; PR₄: H-(PR)₄HHHHHH-NH₂; PR₃: H-(PR)₃HHHHHH-NH₂; PR₂: H-(PR)₂HHHHHH-NH₂. 96-well microplates (Corning Incorporated, Corning, USA) were coated with dipeptide repeat protein peptides at a concentration of 50 μg/ml in coating buffer (15 mM Na₂CO₃, 35 mM NaHCO₃, pH 9.42). Non-specific binding sites were blocked for 1 h at room temperature with PBS/0.1% Tween®-20 containing 2% BSA (Sigma-Aldrich, Buchs, Switzerland). Primary antibodies were diluted to the indicated concentrations and incubated 1 h at room temperature, followed by incubation with a donkey anti-human IgG Fcγ-specific antibody conjugated with HRP (Jackson ImmunoResearch Laboratories, Inc., West Grove, USA). Binding was determined by measurement of HRP activity in a standard colorimetric assay. EC₅₀ values were estimated by non-linear regression using GraphPad Prism software (San Diego, USA).

Row | Binder | binding result [1] | binding result [2] | binding result [3] | EC50 [4] | EC50 [5] | EC50 [6] | EC50 [7]
1 | NI-308.46E9 (antibody, V domains shown, Recombinant complete human IgG1, kappa) VH: QVQLQESGPGLVKPSETLSLTCTVSGASISGSTYYWGWIRQPPGKGLEYIGRIYYSGSTYYNPSLKSRATISVDTSKNQLSLTLSSVTAADTAVYYCVRPFYAGSGNSPFDYWGQGTLVTVSS VL: CEIVLTQSPATVSVSPGERATLSCRASQSVSTNLAWYQQKPGQPPRLLIYGASTRATGIPARFSGSGSGAEFTLTISSLQSEDFVVYYCQQYNNWPPAFGGGTKVEIK | no binding | no binding | no binding | 13.9 nM | 15.5 nM |  | 
2 | NI-308.5G2 (antibody, V domains shown, Recombinant complete human IgG1, kappa) VH: EVQLVQSGADLRNPGASVTVSCTASGYHFADNAINWLRQAPGQRLEWMGWINIYSGNTKYSQNFQGRVTFTRNTSASTAFMHLRSLRSEDTAVYFCARDPDSSGYYLPYFDYWGQGTLVTVSS VL: DIQLTQSPDSLTLSLGERATINCKSSQSVFYNSNNKNYLAWYQQKPGQPPKLLMYWASTRESGVTDRFSGSGSGTDFTLTITNLQAEDVAVYYCQQFYSSPLTFGGGTKVEIK | no binding | no binding | no binding | 0.88 nM | 0.47 nM |  | 
3 | NI-308.28G1 (antibody, V domains shown, Recombinant complete human IgG1, kappa) VH: QVQLQESGPRLVKPSETLSLTCTVAGGSVNSYYWTWIQQSPGKGLEWLGRIYIAGRTNYNPSLTSRIALSVDTSRNQLSLKLTSVTAADTAIYYCARWGAESGDYYYGVDVWGPGTLVTVSS VL: EIVMTQSPLSLPVTPGEPASISCKSSEGLLHSNGYTYLDWYLQKPGQAPQLLIFLASNRAAGVPDRFSGSGSGTDFTLKISRVEAEDVGVYYCMQAIQSPWTFGPGTKVEIK |  |  |  |  |  | > 200 nM | 6.3 nM
4 | NI-308.15O7 (antibody, V domains shown) VH: QVQLVESGGGVVQPGRSLRLSCAASGFTFSNHAMHWVRQAPGKGLEWVAVISYDGENTYYADSIEGRFTISRDNFKNTLFLQMYSLTADDTAMYFCARGGRRGHFTSYYLDYWGQGTLVTVSS VL: CDIQMTQSPSSLSASVGDRVTITCRASQNIDKYLNWYQQIPGKAPKLLIYAASSLHSGVPSRFSGSGSGTDFSLTISSLQPEDFAIYYCQQSYSSFRTFGQGTKLEIK |  |  |  |  |  | > 150 nM | 7.9 nM
